This is an account of results in paper PMC5624781.

For one test, the target named is EEA1 (Homo sapiens) (UniProt Q15075). The settings on record: cited from earlier work.
The target of another test is GST-Rabaptin5_(551-862) (UniProt Q15276). The test can be described thus: BLI; BLItz system (ForteBio); 0.5 µM GST-Rabaptin5_(551-862) or GST-EEA1_(36-91) immobilised on anti-GST sensors; GppNHP-loaded Rab5 or mUbRab5 at several concentrations in solution; 50 mM Tris-HCl, 150 mM NaCl, 10 mM MgCl2, 1 mM GppNHP; global fit, Kd = koff/kon. (BLI is a label-free optical method that tracks binding on a fibre tip over time.)

The target of another test is GST-EEA1_(36-91) (UniProt Q15075). Described as above.

By Kd is commonly meant a measure of binding affinity in units of concentration. Turning to Rab5 (from UniProt P20339), the dissociation constant Kd with EEA1 (Homo sapiens) was 2.4 µM.
The term koff denotes the rate constant with which the complex falls apart. High values mean fast dissociation, low ones slow dissociation. As a reminder, the kon is the rate constant with which the complex forms. “Rab5 (unmodified Rab5a) (from UniProt P20339 1-215) (natural protein)”: in the test with GST-Rabaptin5_(551-862), the Kd came out at 8 µM, the koff came to 0.0022 s⁻¹ and the kon worked out at 660 M⁻¹ s⁻¹. In the test with GST-EEA1_(36-91), this substance gave a Kd of 5.8 µM, a koff of 0.0026 s⁻¹ and a kon of 450 M⁻¹ s⁻¹.
For “mUbRab5_(K116), chemically conjugated monoubiquitinated Rab5 (ubiquitin G76C disulfide-linked to Rab5 K116C) (from UniProt P0CG48 1-76)”, the equilibrium dissociation constant (Kd) with GST-Rabaptin5_(551-862) was 8 µM; with GST-EEA1_(36-91) it was 18.4 µM.
On the same counts, the results for “mUbRab5_(K140), chemically conjugated monoubiquitinated Rab5 (ubiquitin G76C disulfide-linked to Rab5 K140C) (from UniProt P0CG48 1-76)” are 37.7 µM and 108 µM.
“mUbRab5_(K165), chemically conjugated monoubiquitinated Rab5 (ubiquitin G76C disulfide-linked to Rab5 K165C) (from UniProt P0CG48 1-76)” showed a Kd in the test with GST-EEA1_(36-91) of 4.7 µM.
